Measurements from the supplement of paper PMC9732359.
± gives the uncertainty stated by the source.

Assay: protein stability index of a GFP-peptide fusion (yeast GPS) (PSI 1-4); higher = more stable; sorted into four equal gates, so the index is relative within each strain
Method in brief: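 For each peptide, the protein stability index sums the read frequency in every gate after multiplying it by the gate number. Read frequencies came from plasmids that were PCR-amplified from each gate and Illumina-sequenced, with reads assigned to strains by barcodes. The gates were four equal bins of GFP/Cherry fluorescence ratio applied to mid-log yeast in leucine-free medium carrying a pooled library of tiled 17-residue yeast protein peptides fused downstream of GFP on a Cherry-expressing plasmid.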

Sequence | protein stability index (doa10∆) | protein stability index (pdr5∆) | protein stability index (san1∆) | protein stability index (ubr1∆)
LHVVSKSSIEKDPSPEI [SIN4] | 2.91 ± 0.054 | 3.03 ± 0.066 | 3.13 ± 0.052 | 3.14 ± 0.051
KENLSKSSWRQEWLANL [SIR4] | 1.98 ± 0.048 | 1.68 ± 0.034 | 1.92 ± 0.07 | 2.55 ± 0.026
ISVARKIYDAFPQTAML [DIS3] | 2.41 ± 0.098 | 2.4 ± 0.072 | 2.61 ± 0.14 | 2.36 ± 0.089
MKQYSYLMDSKNVRTRI [RRI1] |  | 2.6 ± 0.26 |  | 2.94 ± 0.22
GNDFKFNYQGDELVLNF [REC8] | 3.34 ± 0.078 | 3.42 ± 0.083 | 3.34 ± 0.053 | 3.17 ± 0.047
NEEINKKSLEEDDEFED [SEM1] |  | 3.33 ± 0.11 | 2.9 ± 0.25 | 
LVFCKHITSVPISAVLR [GRR1] | 1.61 ± 0.053 | 1.72 ± 0.05 | 1.92 ± 0.088 | 1.71 ± 0.042
SDGEDGHIPWHILAVKK [SSN2] | 3.02 ± 0.11 | 2.97 ± 0.15 | 3.23 ± 0.1 | 3.16 ± 0.15
VQKILPLSNEVFEISEN [SWI1] | 2.13 ± 0.043 | 1.85 ± 0.039 | 1.73 ± 0.06 | 2.17 ± 0.035
MVHREFLKLANGGKFSK [RGR1] | 3.22 ± 0.08 | 2.74 ± 0.074 | 3.14 ± 0.12 | 2.91 ± 0.07
PVNSADGKEDVEKGTPL [SME1] | 3.45 ± 0.12 | 3.25 ± 0.21 | 3.52 ± 0.058 | 
QPTPRSASNTAKSTPNT [GAL11] | 2.75 ± 0.061 | 2.93 ± 0.05 | 2.75 ± 0.058 | 2.55 ± 0.048
YSKDAKEIYYTPDPSEL [FAS2] | 2.44 ± 0.026 | 2.81 ± 0.028 | 2.6 ± 0.026 | 2.619 ± 0.024
KTAIEGSYIDKKCPFTG [RPS11A] | 3.12 ± 0.069 | 3.37 ± 0.075 | 3.08 ± 0.051 | 3.27 ± 0.036
ARQQVAQQLRNQQQQQQ [GAL11] | 2.73 ± 0.064 | 3.2 ± 0.13 | 2.85 ± 0.097 | 2.92 ± 0.076
SFKGSPNERKAKQAKIR [SNF2] | 3.36 ± 0.12 | 3.56 ± 0.12 | 3.39 ± 0.18 | 3.12 ± 0.15
NNGNNSTSIQYHGISKN [POP6] | 2.48 ± 0.063 | 2.51 ± 0.06 | 2.65 ± 0.044 | 2.22 ± 0.07
FLPKLNSVRNSLLLAHF [NUT1] | 2.15 ± 0.04 | 1.5 ± 0.046 | 1.65 ± 0.07 | 1.81 ± 0.029
ASSAVMNRRKIAMPKRR [YLR335W/NUP2] | 1.19 ± 0.074 | 1.3 ± 0.071 | 1.23 ± 0.2 | 1.16 ± 0.11
NISSSQQLLPAPQLFPY [DSN1] | 2.44 ± 0.12 | 2.71 ± 0.097 | 2.62 ± 0.078 | 2.84 ± 0.086
CSHIFTSDQKNKRTQFS [RPB9] | 2.52 ± 0.058 | 2.72 ± 0.052 | 2.47 ± 0.068 | 2.53 ± 0.043
GVWVRYDSRSGTHNMYK [RPL20A] |  | 2.3 ± 0.26 | 3.1 ± 0.29 | 
DVLKENNDADKGRSYAY [RIP1] | 3.48 ± 0.13 | 3.5 ± 0.15 | 3.25 ± 0.092 | 3.03 ± 0.26
TGWNAKTYGISDDIISQ [FAS2] | 1.99 ± 0.14 | 1.12 ± 0.12 | 1.72 ± 0.24 | 1.2 ± 0.091
INGINWRFHTPQKYVLH [SIN4] | 2 ± 0.057 | 1.92 ± 0.052 | 1.83 ± 0.097 | 1.97 ± 0.042
GTLKVILNLYSSAHLIR [YML103C/NUP188] | 2.07 ± 0.15 |  |  | 
DQSNVQYYLSVLNQQLP [BRR2] | 2.96 ± 0.082 | 3.03 ± 0.072 | 3.02 ± 0.06 | 3.03 ± 0.06

Sequence | protein stability index (doa10∆) | protein stability index (pdr5∆) | protein stability index (san1∆) | protein stability index (ubr1∆)
RVARRNAARKAEASGEA [RPS9A] | 3.32 ± 0.13 | 3.44 ± 0.17 |  | 3 ± 0.098
VSECIILGQTMSIGTGS [RPO31] | 2.06 ± 0.078 | 2 ± 0.061 | 1.89 ± 0.086 | 2.58 ± 0.055
SAPAPAAAAPAPVAAAA [FAS2] | 3.24 ± 0.24 | 3.21 ± 0.28 | 2.49 ± 0.13 | 3.28 ± 0.29
REIESLIAEETNNKKLL [SMC3] | 2.78 ± 0.18 | 2.86 ± 0.082 | 3.01 ± 0.11 | 2.92 ± 0.15
ADDHASVQINVAKVDEE [RPS21A] | 3.26 ± 0.062 | 3.08 ± 0.072 | 3.13 ± 0.045 | 3.26 ± 0.04
QETQHGNITRGLAVGLA [RPN2] | 3.08 ± 0.074 | 2.55 ± 0.096 | 2.73 ± 0.062 | 2.88 ± 0.04
IAGHDEFNGFSLYQVDP [PRE8] | 3.15 ± 0.09 | 3.31 ± 0.15 | 3.21 ± 0.11 | 2.94 ± 0.095
VPFESLQGVTYPVLRKL [YIL149C/MLP2] | 2.82 ± 0.11 | 2.56 ± 0.075 | 2.32 ± 0.12 | 2.27 ± 0.068
GVAHLLNRFNFQNTNTR [QCR2] | 2.69 ± 0.084 | 2.58 ± 0.086 | 2.43 ± 0.15 | 2.5 ± 0.062
DQLIISSSANKLLQLFL [YML103C/NUP188] | 1.91 ± 0.063 | 2.17 ± 0.066 | 1.89 ± 0.086 | 2.54 ± 0.055
RNEDARRNLRYGDRMKL [RPO31] | 3.37 ± 0.096 | 3.38 ± 0.084 | 3.21 ± 0.08 | 3.38 ± 0.065
DLIETSFTCFAQFVSNK [NUT1] | 2.64 ± 0.093 | 2.01 ± 0.075 | 1.92 ± 0.11 | 2.77 ± 0.076
LATYCPRVQGFYVPQAR [GRR1] | 2.44 ± 0.078 | 2.4 ± 0.069 | 2.03 ± 0.09 | 3 ± 0.049
FKLVSTPSSNSNSSELE [MED1] | 1.85 ± 0.058 | 2.29 ± 0.062 | 2.35 ± 0.057 | 2.84 ± 0.046
KHWGGGILGNKAQAKMD [RPL8A] | 3.39 ± 0.13 | 3.47 ± 0.11 | 3.53 ± 0.066 | 3.35 ± 0.087
RLLSALGPRGVSITPGK [SRP21] | 2.97 ± 0.078 | 3.04 ± 0.074 | 3.29 ± 0.078 | 2.93 ± 0.054
KQVLDVDPVYKDVAKPT [FAS2] | 2.98 ± 0.065 | 2.99 ± 0.058 | 3.08 ± 0.037 | 2.86 ± 0.041
FEIQGVPPMKLAYSKIV [YMR129W/POM152] | 1.59 ± 0.074 | 2.01 ± 0.063 | 1.53 ± 0.1 | 1.74 ± 0.062
KSVEKTMIKKTTLVTRR [SMC3] | 3.17 ± 0.23 | 3.19 ± 0.12 | 2.91 ± 0.066 | 3.4 ± 0.2
LIKNGKKVTAFVPNDGC [RPS23A] | 3.03 ± 0.11 | 3.31 ± 0.061 | 3.45 ± 0.039 | 3.38 ± 0.054
PMYKELWINYIKELLNI [POP4] | 1.67 ± 0.19 | 1.08 ± 0.11 |  | 
NTSSLQSFQNPFTASQS [YIL149C/MLP2] | 2.36 ± 0.05 | 2.02 ± 0.038 | 2.45 ± 0.048 | 2.36 ± 0.034
SSPTLATGFGAHMANPL [PRE4] | 3.26 ± 0.09 | 3.07 ± 0.097 | 2.98 ± 0.068 | 2.65 ± 0.097
FLLRRVKADVEKSLLPK [ISW2] | 3.19 ± 0.13 | 3.05 ± 0.17 | 3.02 ± 0.079 | 2.94 ± 0.1
KEENDEGLSAQIAFDLV [RPN2] | 3.4 ± 0.14 | 3.56 ± 0.098 | 3.44 ± 0.076 | 3.33 ± 0.055
FITRLAQGLLHLGKGTM [RPN1] | 2.9 ± 0.086 | 2.99 ± 0.091 | 2.3 ± 0.14 | 2.23 ± 0.074
QSQPQEKFSEKMLKIWT [ECM29] | 3.57 ± 0.26 | 3.08 ± 0.15 | 2.9 ± 0.21 | 3.03 ± 0.2
